The source of these data is US20230391881A1 (UNIVERSITY OF VIRGINIA PATENT FOUNDATION, published 2023).

The target of assay [1] is T1, FOLR1 (UniProt P15328 25-234).
T1 construct: also called folate receptor alpha
Kind of assay: immunoprecipitation, immunoblot with commercial FOLR1 antibody (FIG. 14C). For orientation: Immunoblotting shows a protein as a band on a membrane.

Assay [2] concerns the target T2, Chi-G4S-DR5 (chimeric DR5: human DR5 extracellular domain, G4S linker, mouse DR5 transmembrane and … (chimeric: human DR5 ECD, mouse DR5 TM …)).
T2 construct: Stably expressed on murine 4T1 cells; also called Chimeric human-mouse DR5 G4S
Put plainly: flow cytometry on Chi-G4S-DR5 stable 4T1 cells (FIG. 15A).

T1 sequence (P15328 25-234 limits assumed): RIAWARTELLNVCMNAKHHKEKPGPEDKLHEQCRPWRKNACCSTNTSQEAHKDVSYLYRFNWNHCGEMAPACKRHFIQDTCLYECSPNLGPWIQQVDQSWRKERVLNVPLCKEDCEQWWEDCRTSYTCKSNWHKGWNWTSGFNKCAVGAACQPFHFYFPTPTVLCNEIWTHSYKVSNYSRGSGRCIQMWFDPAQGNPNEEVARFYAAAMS

B1: Farletuzumab (antibody, V domains shown)
VH: EVQLVESGGGVVQPGRSLRLSCSASGFTFSGYGLSWVRQAPGKGLEWVAMISSGGSYTYYADSVKGRFAISRDNAKNTLFLQMDSLRPEDTGVYFCARHGDDPAWFAYWGQGTPVTVSS
VL: DIQLTQSPSSLSASVGDRVTITCSVSSSISSNNLHWYQQKPGKAPKPWIYGTSNLASGVPSRFSGSGSGTDYTFTISSLQPEDIATYYCQQWSSYPYMYTFGQGTKVEIKR
notes: also called clinical anti-FOLR1, farletuzumab
In the case of B1, the binding result in assay [1] is “binds”.

B2: Tigatuzumab (antibody, human IgG1, kappa, L234A L235A, V domains shown)
VH: EVQLVESGGGLVQPGGSLRLSCAASGFTFSSYVMSWVRQAPGKGLEWVATISSGGSYTYYPDSVKGRFTISRDNAKNTLYLQMNSLRAEDTAVYYCARRGDSMITTDYWGQGTLVTVSS
VL: DIQMTQSPSSLSASVGDRVTITCKASQDVGTAVAWYQQKPGKAPKLLIYWASTRHTGVPSRFSGSGSGTDFTLTISSLQPEDFATYYCQQYSSYRTFGQGTKVEIKR
notes: also called clinical tigatuzumab antibody
B2: the binding result in assay [2] was “binds”.
